Biological target: PD-L1 (blocking assay of Example 11) (UniProt Q9NZQ7)
Sequence (Q9NZQ7 19-239 limits assumed): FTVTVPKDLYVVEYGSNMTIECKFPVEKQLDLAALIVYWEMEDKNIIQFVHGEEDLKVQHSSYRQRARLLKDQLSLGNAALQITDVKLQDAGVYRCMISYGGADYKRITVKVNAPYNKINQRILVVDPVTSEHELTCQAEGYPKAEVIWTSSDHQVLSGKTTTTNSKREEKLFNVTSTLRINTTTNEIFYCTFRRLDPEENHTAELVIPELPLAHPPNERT

| EC50, luminescence (RLU) in the PD-1/PD-L1 Blockade Assay [nM] | EC50 printed for a flat curve: luminescence stays at the baseline of about 50000 RLU up to Log10 about 2.2 nM (no blockade), PD-1/PD-L1 Blockade Assay [pM] | Substance |
| --- | --- | --- |
| 0.318 | – | Tecentriq (antibody) |
| – | 39.5 | Human IgG1 (antibody) |

— US20240101716A1
